The values that follow come from article PMC6392133, “Structure and Catalytic Mechanism of a Bacterial Friedel–Crafts Acylase” (Chembiochem, 2018).

A word on the stoichiometry N: it is a count of units in the complex or per binding partner.

Experiment [1] deals with PhlC subunit of the acyltransferase from Pseudomonas protegens DSM 19095 (PpATase) (Pseudomonas protegens DSM 19095). The experiment can be described thus: crystal structure; PpATase complex (PhlA, PhlB, PhlC co-expressed, purified by SEC); hexagonal crystal form (P6_(1)22, untreated, 2.8 Å) and orthorhombic crystal form (P2_(1)2_(1)2_(1), soaked with MAPG, 3.4 Å); crystallised at 289 K; protein-protein interactions in the crystal analysed with the EBI-Pisa server.

The target in experiment [2] is T1, PpATase (multicomponent acyltransferase, PhlA/PhlB/PhlC) (Pseudomonas protegens, UniProt Q4K420).
T1 construct: codon-optimized phlA, phlB, phlC ORFs co-expressed in E. coli; size-exclusion purified for crystals, cell-free extract for activity; heterododecamer Phl(A2C2)2B4; with 2,4-diacetylphloroglucinol biosynthesis protein PhlA; 2,4-diacetylphloroglucinol biosynthesis protein PhlB
In words: X-ray crystal structure ([…] Å) of crystal soaked with MAPG. Format: binding. The following applies: PG bound at PhlC active site (4 of 8 PhlC copies) next to acetylated Cys88; formed in the crystal from soaked MAPG.

For experiment [3], the target named is PhlA subunit of the acyltransferase from Pseudomonas protegens DSM 19095 (PpATase) (Pseudomonas protegens DSM 19095). In words: crystal structure; PpATase complex (PhlA, PhlB, PhlC co-expressed, purified by SEC); hexagonal crystal form (P6_(1)22, untreated, 2.8 Å) and orthorhombic crystal form (P2_(1)2_(1)2_(1), soaked with MAPG, 3.4 Å); crystallised at 289 K; protein-protein interactions in the crystal analysed with the EBI-Pisa server.

For “PhlC subunit of the acyltransferase from Pseudomonas protegens DSM 19095 (PpATase) (natural protein)”, the stoichiometry N in experiment [1] turned out to be 2.
Turning to `Oc1cc(O)cc(O)c1` [PG, benzene‐1,3,5‐triol], the “X-ray crystal structure (3.4 Å) of crystal soaked with MAPG” value in experiment [2] was “This density was compatible with an acetylated Cys88 residue and with a (deacetylated) PG molecule”.
Turning to “PhlA subunit of the acyltransferase from Pseudomonas protegens DSM 19095 (PpATase) (natural protein)”, the stoichiometry N in experiment [3] was 2.
